In assay [1] the target is tissue plasminogen activator (t-PA) (human) (UniProt P00750). In words: inhibition kinetics, residual enzymatic activity.
Assay [2] has as its target urokinase-type plasminogen activator (u-PA) (human) (UniProt P00749). Description: inhibition kinetics, residual enzymatic activity.
For assay [3], the target named is tissue plasminogen activator (t-PA) (human) (UniProt P00750). Description: ratio of the rate constants for inhibition of t-PA and u-PA.
Assay [4] concerns the target urokinase-type plasminogen activator (u-PA) (human) (UniProt P00749). In words: ratio of the rate constants for inhibition of u-PA, wild type against variant.
Assay [5] has the same target. Description: ratio of the rate constants for inhibition of u-PA and t-PA.
Assay [6] has the same target. Description: inhibition kinetics, residual enzymatic activity, indirect chromogenic assay.

Sequence of tissue plasminogen activator (t-PA) (human) (P00750 36-562 limits assumed): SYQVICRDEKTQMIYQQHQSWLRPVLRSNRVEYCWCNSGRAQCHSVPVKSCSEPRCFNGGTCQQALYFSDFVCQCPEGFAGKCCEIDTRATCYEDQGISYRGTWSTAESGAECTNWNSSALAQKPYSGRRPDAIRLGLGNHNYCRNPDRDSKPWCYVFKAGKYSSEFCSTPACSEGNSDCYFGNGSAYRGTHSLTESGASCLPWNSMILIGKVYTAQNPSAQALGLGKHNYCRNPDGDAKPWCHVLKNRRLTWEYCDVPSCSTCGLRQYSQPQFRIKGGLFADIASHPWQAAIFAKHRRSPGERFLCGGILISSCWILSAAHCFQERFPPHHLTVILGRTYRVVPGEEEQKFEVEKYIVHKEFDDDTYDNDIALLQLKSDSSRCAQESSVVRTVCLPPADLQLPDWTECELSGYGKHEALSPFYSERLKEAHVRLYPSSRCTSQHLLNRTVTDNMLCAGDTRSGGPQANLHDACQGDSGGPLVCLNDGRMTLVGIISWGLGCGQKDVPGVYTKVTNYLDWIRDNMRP

For the substance PAI-1/P3R (from UniProt P05121 24-402), the second order rate constant for inhibition in assay [1] amounted to 1.4e+06 M⁻¹ s⁻¹; in assay [2], 100000 M⁻¹ s⁻¹. For the same substance, the t-PA/u-PA Selectivity in assay [3] was found to be 14. In assay [4], the fold reduction of activity against wild type PAI-1 is 190 fold.

As for “PAI-1/P4Q, P3R (from UniProt P05121 24-402)”, the second order rate constant for inhibition in assay [1] is 1.4e+06 M⁻¹ s⁻¹; in assay [2], 29000 M⁻¹ s⁻¹. Further, the t-PA/u-PA Selectivity in assay [3] worked out at 48.

As for “wild type plasminogen activator inhibitor type 1 (PAI-1) (from UniProt P05121 24-402) (other; other documents disagree on this pair)”, the fold specificity toward u-PA over t-PA in assay [5] came to 11.9 fold. In assay [6], this substance displayed a second order rate constant for inhibition of 1.9e+07 M⁻¹ s⁻¹.

Source of the values: patent US20030186329A1, “Use of substrate subtraction libraries to distinguish enzyme specificities” (The Scripps Research Institute, priority 1998, published 2003).
